Test results as given in US20070298997A1, “Compounds useful in treating diabetic microvascular complications and age-related macular degeneration” (priority 2003, published 2007).
“Also recorded” adds a separate entry of the source.

How the values were obtained:
[1] = tested on: vascular permeability in the retina, iris and choroid; assay: Vascular permeability by Evans blue leakage in OIR rats; type: in vivo, Brown Norway rats
Experimental: Next, the effect of kallistatin on vascular permeability was determined. At P14, two days after the rats were returned to normoxia, the OIR rats received an intravitreal injection of 3 μl of kallistatin of concentrations of 2.4, 4.8 and 9.6 mg/ml in the right eye (4 animals per dose group), and the same volume of PBS in the left. Two days after the kallistatin injection (P16), vascular permeability was measured by the Evans blue leakage method. […] Kallistatin injection decreased vascular permeability in a dose-dependent manner in the retina, iris and choroid of the hyperoxia-treated rats (FIG. 6).
Measurement of vascular permeability: Vascular permeability was quantified by measuring albumin leakage from blood vessels into the retina, iris and choroid using Evans blue following a documented protocol (Xu et al., 2001) with minor modifications. Evans blue dye (Sigma, St. Louis, Mo.) was dissolved in normal saline (30 mg/ml), sonicated for 5 min and filtered through a 0.45-μm filter (Millipore, Bedford, Mass.). The rats were anesthetized, and Evans blue (30 mg/kg) was injected over 10 seconds through the femoral vein using a glass capillary under microscopic inspection. Evans blue non-covalently binds to plasma albumin in the blood stream (Radius et al., 1980). Immediately after Evans blue infusion, the rats turned visibly blue, confirming their uptake and distribution of the dye. The rats were kept on a warm pad for 2 h to ensure the complete circulation of the dye. Then the chest cavity was opened, and the rats were perfused via the left ventricle with 1% paraformaldehyde in citrate buffer (pH=4.2) which was pre-warmed to 37° C. to prevent vasoconstriction. The perfusion lasted 2 min under the physiological pressure of 120 mmHg to clear the dye from the vessel. Immediately after perfusion, the eyes were enucleated and the retina, iris and choroid were carefully dissected under an operating microscope. Evans blue dye was extracted by incubating each sample in 150 μl formamide for 18 h at 70° C. The extract was centrifuged (TL; Beckman) at 70,000 rpm (Rotor type: TLA 100.3) for 20 min at 4° C. Absorbance was measured using 100 μl of the supernatant at 620 nm. The concentration of Evans blue in the extracts was calculated from a standard curve of Evans blue in formamide and normalized by the total protein concentration in each sample. Results were expressed in micrograms of Evans blue per milligrams of total protein content.

[2] = tested on: primary human mesangial cells (HMC); assay: High glucose-induced fibronectin secretion in HMC (ELISA); type: cell-based; settings: 30 mM glucose, 25 to 1600 nM, 3 days
Experimental: FIG. 11 illustrates blockage of high glucose-induced fibronectin secretion by kallistatin in human mesangial cells (HMC). Primary HMC was treated with high glucose (30 mM) in the presence of different concentrations of kallistatin as indicated for 3 days. Control cells were cultured in 5 mM glucose. To overcome the osmolarity difference, mannitol control cells were treated with 25 mM mannitol+5 mM glucose under the same conditions. Fibronectin secreted into the culture medium was measured by ELISA (mean±SD, n=3).
Cultured primary human mesangial cells (HMC) were treated with 30 mM glucose in the absence or presence of different concentrations of kallistatin (25-1600 nM) for 3 days. Cells cultured in 5 mM glucose were used as a control. To exclude the possible effect of osmolarity from high glucose, an osmolarity control was also included which was treated with 5 mM glucose and 25 mM mannitol. After the treatments for 3 days, secretion of fibronectin into the culture medium was measured.

VEGF = VEGF in RCEC cell lysate by Western blot; type: cell-based, bovine; settings: RCEC under hypoxia, 24 h, 40-640 nM
Experimental: FIG. 9 illustrates down-regulation of VEGF expression by kallistatin. As increased VEGF levels in the retina and vitreous play a key role in the development of retinal neovascularization, the effect of kallistatin on the expression of VEGF in cultured RCEC was determined. VEGF secreted into the conditioned medium was measured by VEGF ELISA and normalized by total protein concentration in the medium.
Measurement of VEGF in the conditioned medium of RCEC by ELISA: RCEC were seeded in T75 flasks in endothelial cell growth medium and cultured in a CO2 incubator to reach 60-70% confluency. The cells were washed 3 times with PBS and the growth medium replaced by a serum-free medium containing bFGF (GIBCO-BRL, Gaithersburg, Md.). Kallistatin was added to the medium to various concentrations and incubated with the cells for 24 h under normoxia or hypoxia (in a chamber that was perfused with a mixture of 95% N2+5% CO2). The conditioned medium was harvested for VEGF ELISA and the cells were used for Western blot analysis. The conditioned medium was centrifuged and the protein concentration in the supernatant was measured with BioRad protein assay. VEGF concentration was measured using a VEGF ELISA kit (R& D systems, Minneapolis, Minn.) and normalized by total protein concentration in the medium. […]

[3] = 3 μl of 4.8 mg/ml intravitreal, P<0.05
[4] = 3 μl of 9.6 mg/ml intravitreal at P14, measured P16, P<0.01

B1: kallistatin: Recombinant His-tagged rat kallistatin (serpin, SEQ ID NO:1) expressed in E. coli and affinity-purified (protein, listed as Homo sapiens)
chain: DGILGRDTLPHEDQGKGRQLHSLTLASINTDFTLSLYKKLALRNPDKNVVFSPLSISAALAILSLGAKDSTMEEILEVLKFNLTEITEEEIHHQGFGHLLQRLSQPEDQAEINTGSALFIDKEQPILSEFQEKTRALYQAEAFVADFKQCNEAKKFINDYVSNQTQGKIAELFSELDERTSMVLVNYLLFKGKWKVPFNPNDTFESEFYLDEKRSVKVPMMKIKDLTTPYIRDEELSCSVLELKYTGNASALFILPDQGKMQQVESSLQPETLKKWKDSLRPRIISELRMPKFSISTDYNLEEVLPELGIRKIFSQQADLSRITGTKNLHVSQVVHKAVLDVDETGTEGAAATAVTAALKSLPQTIPPLNFNRPFMLVITDNNGQSVFFMGKVTNPM
modifications: His tag
vascular permeability, choroid ([1]; 3 μl of 2.4 mg/ml intravitreal): did not show any significant effect
vascular permeability, iris ([1]; 3 μl of 2.4 mg/ml intravitreal): did not show any significant effect
vascular permeability, retina ([1]; 3 μl of 2.4 mg/ml intravitreal): did not show any significant effect
vascular leakage, choroid ([1]; 3 μl of 4.8 mg/ml intravitreal): not in the choroid
vascular leakage, iris [1, 3]: significantly decreased vascular leakage
vascular leakage, retina [1, 3]: significantly decreased vascular leakage
vascular permeability, iris [1, 4]: significant decrease in permeability
vascular permeability, retina [1, 4]: significant decrease in permeability
vascular permeability, choroid ([1]; 3 μl of 9.6 mg/ml intravitreal at P14, measured P16, P<0.05): significant decrease in permeability
fibronectin production (secretion into medium) [2]: concentration-dependent decrease of fibronectin production; also recorded: fibronectin was significantly lower than the high glucose alone
VEGF levels in the cell lysate (VEGF): reduced VEGF levels in the cell lysate of RCEC in a concentration-dependent manner
